Experimental data as given in patent US20100286027A1, “ANTI-BACTERIAL COMPOSITIONS” (priority 2008, published 2010).

Legend:
Escherichia coli (25922) = experiment: BacTiter-Glo bacterial ATP content viability assay; conditions: gram −, +/− SD, n = 3, >100 = activity detected but <50% inhibition
[1] = tested on: Salmonella choleraesuis (13076); experiment: BacTiter-Glo bacterial ATP content viability assay; conditions: gram −, +/− SD, n = 3, >100 = activity detected but <50% inhibition
Staphylococcus aureus = experiment: Competition assay of Nod2 LRR activity against S. aureus; assay type: cell-based; conditions: then live S. aureus
Method: FIG. 6: Purified Nod2 LRR domains (Nod2: 30 microgram/ml) were preincubated with 200 microgram/ml of the indicated bacterial component prior to addition to Staphylococcus aureus. BSA was added as a protein control. Commercial […] extracts (sPGN: soluble […], iPGN: insoluble proteoglycan), lipoteichoic acid (LTA: crude lipoteichoic acid extract, upLTA: ultrapure lipoteichoic acid extract), or heat-killed S. aureus (HKSA) were used. Control indicates bacterial growth in the presence of BSA only.
If this interaction was the initiating factor for the Nod2 LRR antimicrobial effects, preincubating the domains with bacterial components containing this motif would be expected to inhibit the antibacterial activity. A competition assay was set up using Nod2 LRR activity against S. aureus. The recombinant LRR domains or BSA (control) were preincubated with various components of the S. aureus membrane prior to addition to live S. aureus and the bacterial viability assessed as in Table 1 above (FIG. 6).

[2] = tested on: Eubacterium lentum NB94001; experiment: MIC against anaerobic bacteria; assay type: cell-based
[3] = tested on: gram-positive and gram-negative anaerobic bacteria; experiment: MIC against panel of anaerobic bacteria, comparison with ciprofloxacin; assay type: cell-based; conditions: against all the anaerobic bacteria tested; molecular weights ~30000 da and 386 da
[4] = tested on: Staphylococcus aureus (29213); experiment: BacTiter-Glo bacterial ATP content viability assay
B. subtilis = experiment: Bacterial growth inhibition (FIG. 14); assay type: cell-based, Bacillus subtilis; conditions: FIG. 14 Panel A; increasing concentrations, relative to controls (100%)
Method: Values shown are relative to controls incubated in the absence of LRR domains (100%).

[5] = tested on: Peptostreptococcus anaerobius NB97001; experiment: MIC against anaerobic bacteria; assay type: cell-based
[6] = tested on: Propionibacterium acnes NB99001; experiment: MIC against anaerobic bacteria; assay type: cell-based

B1: Nod2: purified recombinant LRR domain of Nod2 expressed in E. coli; human NOD2-LRR is SEQ ID NO: 3; ~30000 da (protein, listed as Homo sapiens)
chain: PAAPGEAKSVHAMPGFIWLIRSLYEMQEERLARKAARGLNVGHLKLTFCSVGPTECAALAFVLQHLRRPVALQLDYNSVGDIGVEQLLPCLGVCKALYLRDNNISDRGICKLIECALHCEQLQKLALFNNKLTDGCAHSMAKLLACRQNFLALRLGNNYITAAGAQVLAEGLRGNTSLQFLGFWGNRVGDEGAQALAEALGDHQSLRWLSLVGNNIGSVGAQALALMLAKNVMLEELCLEENHLQDEGVCSLAEGLKKNSSLKILKLSNNCITYLGAEALLQALERNDTILEVWLRGNTFSLEEVDKLGCRDTRLLL
notes: purified recombinant LRR domain of Nod2 expressed in E. coli; ~30000 da
For B1, the “antibacterial activity by bacterial ATP content (IC50), [LRR domain]” value (“antibacterial activity … [LRR domain]” below) (Escherichia coli (25922)) was greater than 100 microgram/ml, the “antibacterial activity … [LRR domain]” value [1] was “None detected” and the “inhibition of antibacterial effect by preincubation with heat-killed S. aureus” value (Staphylococcus aureus; Nod2 30 microgram/ml preincubated with 200 microgram/ml HKSA) was “Only heat-killed S. aureus was capable of inhibiting”. For the same molecule, the “inhibition of antibacterial effect by preincubation with proteoglycan or lipoteichoic acid” value (Staphylococcus aureus; Nod2 30 microgram/ml preincubated with 200 microgram/ml bacterial component) was “Neither S. aureus proteoglycan containing the MDP motif, nor lipoteichoic acid inhibited”, the “minimal inhibitory concentration (MIC)” value [2] was 8 microgram/ml and the “potency relative to ciprofloxacin on a molar (mmoles/ml) basis” value [3] was 25-200 times. For the same molecule, the “antibacterial activity on S. aureus viability under bacterial stress” value ([4]; FIG. 13, ATP-coupled luminescent assay at 35° C., 37° C. and 39° C.) was “increased with bacterial stress”, the “antibacterial activity … [LRR domain]” value ([4]; Staphylococcus aureus (29213), gram +, +/− SD, n = 3, >100 = activity detected but <50% inhibition) was 6.0 +/− 4.0 microgram/ml and the “growth of B. Subtilis” value (B. subtilis) was “inhibits the growth”. For the same molecule, the “minimal inhibitory concentration (MIC)” value [5] was 2 microgram/ml and the “minimal inhibitory concentration (MIC)” value [6] was 4 microgram/ml.
